Reference: the supplement of paper PMC10724198
± gives the standard deviation of the averaged measurements.

Assays:
Saccharomyces cerevisiae [1] = assay: protein stability index of tFT-peptide fusion (C-terminal peptide) (PSI (0-1 scale)); higher = more stable (slower turnover)
Procedure: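 MPS profiling in S. cerevisiae of the tFT-X12 degron library: putative degron peptides plus stable controls, 12 aa, fused to the C-terminus of a sfGFP-mCherry timer. Cells are FACS-sorted into 8 mCherry/sfGFP bins and deep-sequenced. PSI runs from 0 (unstable) to 1 (stable). Backgrounds are wild type, das1Δ and doa10Δ at 30 °C, and wild type, das1Δ, cdc34-1 and cdc53-1 at 37 °C; 2-3 technical replicates each.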

Saccharomyces cerevisiae [2] = assay: as above; conditions: genetic background: wild type; temperature: 30 C
[3] = genetic background: cdc34-1, temperature: 37 C
[4] = genetic background: cdc53-1, temperature: 37 C
[5] = genetic background: das1 deletion, temperature: 30 C
[6] = genetic background: das1 deletion, temperature: 37 C
[7] = genetic background: doa10 deletion, temperature: 30 C
[8] = genetic background: wild type, temperature: 30 C
[9] = genetic background: wild type, temperature: 37 C
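Note: PSI is a weighted mean of sequencing reads over stability bins, variants kept only with over 10 reads, mCherry proximal and sfGFP distal, peptide attached via GGGS linker.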

Sequence	protein stability index (Saccharomyces cerevisiae [1]; [3])	protein stability index (Saccharomyces cerevisiae [1]; [4])	protein stability index (Saccharomyces cerevisiae [1]; [5])	protein stability index (Saccharomyces cerevisiae [1]; [6])	protein stability index (Saccharomyces cerevisiae [1]; [7])	protein stability index (Saccharomyces cerevisiae [1]; [8])	protein stability index (Saccharomyces cerevisiae [1]; [9])	protein stability index (Saccharomyces cerevisiae [2])
VFSAIPDWLILA	0.492 ± 0.017	0.5094 ± 0.0035	0.387 ± 0.041	0.5492 ± 0.0043	0.279 ± 0.013	0.319 ± 0.016	0.462 ± 0.018	0.453 ± 0.0079
VFSVTVVFVSVL	0.158 ± 0.0021	0.271 ± 0.062	0.192 ± 0.035	0.383 ± 0.014	0.168 ± 0.011	0.191 ± 0.024	0.324 ± 0.012	0.298 ± 0.046
VFVGGVSVLILF	0.531 ± 0.051	0.638 ± 0.0089	0.438 ± 0.026	0.602 ± 0.0081	0.413 ± 0.0093	0.434 ± 0.033	0.584 ± 0.0086	0.516 ± 0.044
VFWLLVGLGCFS	0.561 ± 0.017	0.563 ± 0.013	0.431 ± 0.025	0.572 ± 0.0075	0.41 ± 0.033	0.417 ± 0.028	0.5686 ± 0.0022	0.481 ± 0.012
VFYWVGVLCGWG	0.298 ± 0.0073	0.391 ± 0.045	0.293 ± 0.026	0.4352 ± 0.0014	0.252 ± 0.012	0.29 ± 0.023	0.405 ± 0.018	0.375 ± 0.007
VGCMVVIWVLWG	0.153 ± 0.0096	0.225 ± 0.025	0.19 ± 0.034	0.313 ± 0.013	0.145 ± 0.001	0.18 ± 0.026	0.278 ± 0.025	0.325 ± 0.043
VGFCICISIMSF	0.0373 ± 0.016	0.109 ± 0.025	0.125 ± 0.025	0.214 ± 0.023	0.09907 ± 0.00077	0.108 ± 0.031	0.209 ± 0.027	0.213 ± 0.046
VGPLAPVCLLVL	0.445 ± 0.025	0.4817 ± 0.0043	0.36 ± 0.038	0.516 ± 0.013	0.325 ± 0.012	0.359 ± 0.019	0.477 ± 0.0057	0.459 ± 0.046
VILCSCSFVLRP	0.523 ± 0.011	0.583 ± 0.023	0.373 ± 0.021	0.57243 ± 0.00022	0.362 ± 0.026	0.376 ± 0.02	0.5617 ± 0.0053	0.401 ± 0.0085
VKIEVICRVSLI	0.334 ± 0.031	0.459 ± 0.028	0.403 ± 0.02	0.495 ± 0.043	0.338 ± 0.0092	0.394 ± 0.05	0.404 ± 0.0055	0.429 ± 0.024
VLCFFWWWCRVC	0.4 ± 0.021	0.525 ± 0.038	0.472 ± 0.019	0.583 ± 0.044	0.353 ± 0.02	0.324 ± 0.035	0.4133 ± 0.001	0.43 ± 0.017
VLFVRGHTLWLM	0.6124 ± 0.0026	0.675 ± 0.01	0.556 ± 0.024	0.702 ± 0.025	0.4861 ± 0.0031	0.458 ± 0.017	0.6344 ± 0.0035	0.505 ± 0.033
VLSCIPRLAIAA	0.335 ± 0.01	0.372 ± 0.019	0.284 ± 0.023	0.404 ± 0.008	0.235 ± 0.0017	0.251 ± 0.0058	0.318 ± 0.0072	0.327 ± 0.017
VLVVTAFTFSCP	0.352 ± 0.049	0.4393 ± 0.00063	0.327 ± 0.018	0.416 ± 0.022	0.319 ± 0.015	0.317 ± 0.015	0.392 ± 0.02	0.324 ± 0.0049
VLVVVRSLSFLS	0.405 ± 0.065	0.51 ± 0.011	0.347 ± 0.025	0.534 ± 0.015	0.308 ± 0.013	0.31 ± 0.023	0.496 ± 0.013	0.382 ± 0.019
VNRRCWISRTLP	0.599 ± 0.023	0.716 ± 0.0041	0.645 ± 0.024	0.713 ± 0.012	0.137 ± 0.039	0.174 ± 0.04	0.289 ± 0.058	0.258 ± 0.065
VPASWLRMLAFC	0.197 ± 0.0024	0.578 ± 0.025	0.559 ± 0.024	0.701 ± 0.047	0.0659 ± 0.0043	0.0647 ± 0.013	0.0629 ± 0.016	0.05335 ± 0.00032
VRFSAVFVKVGV	0.547 ± 0.031	0.553 ± 0.0091	0.395 ± 0.026	0.5703 ± 0.0032	0.377 ± 0.0083	0.402 ± 0.023	0.5317 ± 0.0017	0.4727 ± 0.0026
VRIGCSLLFFLP	0.661 ± 0.036	0.734 ± 0.014	0.589 ± 0.0067	0.6934 ± 0.0062	0.478 ± 0.015	0.501 ± 0.015	0.6267 ± 0.0046	0.532 ± 0.051
VRSELHINSFIH	0.656 ± 0.0076	0.767 ± 0.017	0.682 ± 0.017	0.741 ± 0.017	0.499 ± 0.047	0.501 ± 0.015	0.681 ± 0.025	0.53 ± 0.054
VRTFVFLVGYCE	0.594 ± 0.032	0.62 ± 0.024	0.406 ± 0.027	0.614 ± 0.023	0.393 ± 0.035	0.394 ± 0.034	0.557 ± 0.04	0.458 ± 0.036
VRVFSLVVCWVV	0.297 ± 0.064	0.359 ± 0.0043	0.262 ± 0.026	0.441 ± 0.0051	0.199 ± 0.004	0.219 ± 0.028	0.367 ± 0.032	0.414 ± 0.037
VSSSFSVLVLLF	0.448 ± 0.017	0.545 ± 0.035	0.375 ± 0.037	0.571 ± 0.013	0.317 ± 0.02	0.339 ± 0.026	0.52 ± 0.035	0.421 ± 0.021
VTLVIYVLVQLT	0.148 ± 0.062	0.198 ± 0.11	0.156 ± 0.044	0.259 ± 0.0037	0.123 ± 0.02	0.15 ± 0.031	0.216 ± 0.037	0.188 ± 0.035
VTTTWTWTVRLC	0.538 ± 0.045	0.631 ± 0.016	0.54 ± 0.018	0.656 ± 0.034	0.0752 ± 0.019	0.0807 ± 0.024	0.149 ± 0.0059	0.15 ± 0.024
VVAALTPLITVA	0.0655 ± 0.023	0.084 ± 0.0042	0.183 ± 0.021	0.202 ± 0.0041	0.151 ± 0.011	0.179 ± 0.024	0.138 ± 0.0061	0.261 ± 0.04
VVLAFFFWFFVG	0.359 ± 0.04	0.518 ± 0.028	0.383 ± 0.034	0.507 ± 0.011	0.25 ± 0.0047	0.265 ± 0.038	0.362 ± 0.01	0.365 ± 0.016
VVLRCGCLVFIN	0.419 ± 0.027	0.5767 ± 0.0053	0.398 ± 0.023	0.6443 ± 0.0057	0.0928 ± 0.0026	0.105 ± 0.017	0.0809 ± 0.0089	0.134 ± 0.051
VVRMRPRLFSLY	0.807 ± 0.04	0.8659 ± 0.0019	0.687 ± 0.047	0.816 ± 0.025	0.186 ± 0.011	0.208 ± 0.0086	0.354 ± 0.033	0.3429 ± 0.0022
VVTFCCARVTKI	0.665 ± 0.048	0.6997 ± 0.0057	0.622 ± 0.038	0.665 ± 0.01	0.585 ± 0.026	0.571 ± 0.025	0.651 ± 0.021	0.522 ± 0.043
